# B1: Rco1 (natural protein, Saccharomyces cerevisiae, UniProt Q04779 1-684, looked up)
# chain: MDTSKKDTTRSPSHSNSSSPSSSSLSSSSSKEKKRPKRLSSQNVNYDLKRRKIITSEGIERSFKNEHSNLAVEDNIPEEEPKELLEKDSKGNIIKLNEPSTISEDSKVSVTGLPLNKGPSEKIKRESLWNYRKNLGGQSNNSEMTLVPSKRFTQVPKNFQDLNRNDLKTFLTENMTEESNIRSTIGWNGDIINRTRDREPESDRDNKKLSNIRTKIILSTNATYDSKSKLFGQNSIKSTSNASEKIFRDKNNSTIDFENEDFCSACNQSGSFLCCDTCPKSFHFLCLDPPIDPNNLPKGDWHCNECKFKIFINNSMATLKKIESNFIKQNNNVKIFAKLLFNIDSHNPKQFQLPNYIKETFPAVKTGSRGQYSDENDKIPLTDRQLFNTSYGQSITKLDSYNPDTHIDSNSGKFLICYKCNQTRLGSWSHPENSRLIMTCDYCQTPWHLDCVPRASFKNLGSKWKCPLHSPTKVYKKIHHCQEDNSVNYKVWKKQRLINKKNQLYYEPLQKIGYQNNGNIQIIPTTSHTDYDFNQDFKITQIDENSIKYDFFDKIYKSKMVQKRKLFQFQESLIDKLVSNGSQNGNSEDNMVKDIASLIYFQVSNNDKSSNNKSASKSNNLRKLWDLKELTNVVVPNELDSIQFNDFSSDEIKHLLYLKKIIESKPKEELLKFLNIENPENQSE
# notes: Rco1, Saccharomyces cerevisiae; two copies (Rco1A, Rco1B) stand in the Rpd3S complex; also called Rco1A; Rco1B; source: High Five insect cells (baculovirus), co-expressed with the other Rpd3S subunits; purified as part of the complex (streptavidin column, Resource Q, gel filtration); not shown: double StrepII, C-terminal, kept
# Target: the molecule itself
# Test: cryo-EM structure; purified apo Rpd3S complex; 3D map of 3.5 Å
protein,measurement,value
B1,binding result,binds

# From paper PMC10542350, “Structural basis of nucleosome deacetylation and DNA linker tightening by Rpd3S histone deacetylase complex” (Cell Research, 2023)
